Laboratory results taken from US20120264685A1 (priority 2009, published 2012).
Where no end group is shown, it is not given here. [ ]: non-standard residue; d: D form. Bip(2'-Et-4'-OMe) = CCc1cc(OC)ccc1-c1ccc(C[C@H](N)C(=O)O)cc1; αMePhe(2,6-F2) = C[C@](N)(Cc1c(F)cccc1F)C(=O)O; αMePhe(2-F) = C[C@](N)(Cc1ccccc1F)C(=O)O; αMeBip(OMe) = alpha-methylated Bip(OMe); hhPhe = N[C@@H](CCCc1ccccc1)C(=O)O; αMeD = C[C@](N)(CC(=O)O)C(=O)O; αMeP = C[C@@]1(C(=O)O)CCCN1; αMeAPPA = not defined here; αMeS = C[C@](N)(CO)C(=O)O; Aib = CC(C)(N)C(=O)O

B1: Seq. ID. No. 17 (peptide)
peptide: VHSQGT[αMePhe(2-F)]TSD[αMeBip(OMe)][hhPhe]
modifications: not fully specified (C-terminus); printed as VHSQGT-(αMe-2FPhe)-TSD-(αMe-Bip(OMe))-(APPA)
B2: Seq. ID. No. 113 (peptide)
peptide: VH[Aib]EGTFT[αMeS][αMeD][Bip(2'-Et-4'-OMe)][αMeAPPA]
modifications: not fully specified (C-terminus); printed as VH-Aib-EGTFT-(αMe-Ser)-(αMe-Asp)-Bip(OMe)-(αMe-APPA); reading uncertain
B3: Seq. ID. No. 208 (peptide)
peptide: VVH[αMeP]QGTFTSD[αMeBip(OMe)][hhPhe]
modifications: not fully specified (C-terminus); printed as VVH-(αMe-Pro)-QGTFTSD-(αMe-Bip(OMe))-(APPA)
B4: Seq. ID. No. 189 (peptide)
peptide: VHSQGT[αMePhe(2-F)]TS[αMeD][αMeBip(OMe)][αMeAPPA]
modifications: not fully specified (C-terminus); printed as VHSQGT-(αMe-2FPhe)-TS-(αMe-Asp)-(αMe-Bip(OMe))-(αMe-APPA); reading uncertain
B5: Seq. ID. No. 87 (peptide)
peptide: VHSEGTFTSD[Bip(2'-Et-4'-OMe)][αMeAPPA]
modifications: not fully specified (C-terminus); printed as VHSEGTFTSD-Bip(OMe)-(αMe-APPA); reading uncertain
B6: Seq. ID. No. 163 (peptide)
peptide: VH[Aib]EGTFT[αMeS]D[αMeBip(OMe)][αMeAPPA]
modifications: not fully specified (C-terminus); printed as VH-Aib-EGTFT-(αMe-Ser)-D-(αMe-Bip(OMe))-(αMe-APPA); reading uncertain
B7: Seq. ID. No. 169 (peptide)
peptide: VHSEGT[αMePhe(2-F)]T[αMeS]D[αMeBip(OMe)][αMeAPPA]
modifications: not fully specified (C-terminus); printed as VHSEGT-(αMe-2FPhe)-T-(αMe-Ser)-D-(αMe-Bip(OMe))-(αMe-APPA); reading uncertain
B8: Seq. ID. No. 19 (peptide)
peptide: VH[Aib]QGT[αMePhe(2-F)]TSD[αMeBip(OMe)][hhPhe]
modifications: not fully specified (C-terminus); printed as VH-Aib-QGT-(αMe-2FPhe)-TSD-(αMe-Bip(OMe))-(APPA)

target: human glucagon receptor (human, UniProt P47871 26-477); experiment: cell-based or functional assay
Sequence (P47871 26-477): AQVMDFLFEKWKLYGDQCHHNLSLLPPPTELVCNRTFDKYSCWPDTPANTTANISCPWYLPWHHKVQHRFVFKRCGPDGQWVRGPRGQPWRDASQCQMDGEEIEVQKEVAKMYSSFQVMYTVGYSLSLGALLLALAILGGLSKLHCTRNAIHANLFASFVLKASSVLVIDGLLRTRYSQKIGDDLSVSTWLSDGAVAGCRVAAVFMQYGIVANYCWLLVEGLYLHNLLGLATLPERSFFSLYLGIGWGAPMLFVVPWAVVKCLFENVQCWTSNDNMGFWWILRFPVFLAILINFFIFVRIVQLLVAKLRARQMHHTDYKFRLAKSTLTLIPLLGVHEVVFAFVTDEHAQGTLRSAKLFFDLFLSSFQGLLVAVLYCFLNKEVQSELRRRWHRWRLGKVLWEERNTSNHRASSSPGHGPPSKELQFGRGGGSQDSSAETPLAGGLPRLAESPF

Binder | cAMP production (pmol/ml/µg prt) with saturated glucagon peptide, at 1 nM [pmol/ml/µg prt] | cAMP production (pmol/ml/µg prt) with saturated glucagon peptide, at 10 nM [pmol/ml/µg prt] | cAMP production (pmol/ml/µg prt) with saturated glucagon peptide, at 100 nM [pmol/ml/µg prt] | cAMP production (pmol/ml/µg prt) with saturated glucagon peptide, at 1 µM [pmol/ml/µg prt] | cAMP production (pmol/ml/µg prt) with saturated glucagon peptide, at 10 µM [pmol/ml/µg prt]
B1 | 6 | 5 | 2 | 0 | 0
B2 | 4 | 2 | 0 | 0 | 0
VH[αMeP]QGT[αMePhe(2,6-F2)]TS[αMeD][αMeBip(OMe)][αMeAPPA] (not fully specified (C-terminus); reading uncertain) [Seq. ID. No. 200] | 10 | 8 | 6 | 4 | 1
VH[Aib]EGTFTS[αMeD][αMeBip(OMe)][hhPhe]-NH2 [Seq. ID. No. 63] | 20 | 18 | 16 | 14 | 12
VHAEGT[αMePhe(2-F)]TS[αMeD][αMeBip(OMe)][hhPhe]-NH2 [Seq. ID. No. 70] | 2 | 0 | 0 | 0 | 0
VH[αMeP]QGT[αMePhe(2-F)]T[αMeS]D[αMeBip(OMe)][hhPhe]-NH2 [Seq. ID. No. 44] | 5 | 3 | 0 | 0 | 0
B3 | 4 | 2 | 0 | 0 | 0
VH[αMeP]EGT[αMePhe(2,6-F2)]TS[αMeD][αMeBip(OMe)][hhPhe] (not fully specified (C-terminus)) [Seq. ID. No. 80] | 0 | 0 | 0 | 0 | 0
B4 | 4 | 2 | 0 | 0 | 0
B5 | 5 | 3 | 1 | 0 | 0
VH[αMeP]EGT[αMePhe(2,6-F2)]TS[αMeD][αMeBip(OMe)][αMeAPPA] (not fully specified (C-terminus); reading uncertain) [Seq. ID. No. 204] | 9 | 6 | 5 | 3 | 0
VH[Aib]QGT[αMePhe(2-F)]T[αMeS]D[αMeBip(OMe)][αMeAPPA] (not fully specified (C-terminus); reading uncertain) [Seq. ID. No. 167] | 9 | 6 | 5 | 3 | 0
B6 | 15 | 12 | 8 | 4 | 2
VH[Aib]EGT[αMePhe(2-F)]TSD[αMeBip(OMe)][hhPhe]-NH2 [Seq. ID. No. 23] | 10 | 8 | 6 | 2 | 0
B7 | 5 | 2 | 0 | 0 | 0
VH[Aib]EGT[αMePhe(2-F)]T[αMeS]D[αMeBip(OMe)][hhPhe]-NH2 [Seq. ID. No. 47] | 9 | 6 | 5 | 3 | 0
VH[Aib]QGT[αMePhe(2,6-F2)]TS[αMeD][αMeBip(OMe)][αMeAPPA] (not fully specified (C-terminus); reading uncertain) [Seq. ID. No. 199] | 14 | 11 | 7 | 3 | 0
VHAEGT[αMePhe(2,6-F2)]TSD[αMeBip(OMe)][hhPhe]-NH2 [Seq. ID. No. 30] | 5 | 3 | 0 | 0 | 0
B8 | 15 | 12 | 8 | 4 | 2
VH[Aib]EGTFT[αMeS]D[αMeBip(OMe)][hhPhe]-NH2 [Seq. ID. No. 39] | 17 | 15 | 12 | 8 | 6
